Positions count from the first letter of the chain named. One block for each binder: values may come before it. Square brackets hold non-standard residues; d marks the D form. GABA = NCCCC(=O)O
Assays:
Test in all cases: positional peptide library pulldown on immobilised Nb, LC-MS of supernatant; signal ratio to control GFP-Nb (1 = not captured, near 0 = captured)
[1] = molecular target: T1, BC2T K4C(Abu) (not fully specified (residue 4))
T1 construct: positional scanning library member
T1 peptide: Ac-PDRCAAVSHWQQ-NH2
Summary of the method: (§1)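 Unbound peptide left in supernatant after 1 h pulldown in PBS/0.01% CHAPS measured by reversed-phase LC-MS (8–30% eluent B gradient, 20 min).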

[2] = molecular target: T2, BC2T A6F
T2 construct: positional scanning library member
T2 peptide: Ac-PDRKAFVSHWQQ-NH2
Summary of the method: as §1

[3] = molecular target: T3, BC2T V7P
T3 construct: positional scanning library member
T3 peptide: Ac-PDRKAAPSHWQQ-NH2
Summary of the method: as §1

[4] = molecular target: T4, BC2T P1K
T4 construct: positional scanning library member
T4 peptide: Ac-KDRKAAVSHWQQ-NH2
Summary of the method: as §1

[5] = molecular target: T5, BC2T V7C(Abu) (also: Abu described as gamma-amino butyric acid)
T5 construct: positional scanning library member
T5 peptide: Ac-PDRKAA[GABA]SHWQQ-NH2
Summary of the method: as §1

[6] = molecular target: T6, BC2T R3W
T6 construct: positional scanning library member
T6 peptide: Ac-PDWKAAVSHWQQ-NH2
Summary of the method: as §1

[7] = molecular target: T7, BC2T P1C(Abu) (SMILES …)
T7 construct: positional scanning library member
T7 peptide: Ac-[GABA]DRKAAVSHWQQ-NH2
Summary of the method: as §1

[8] = molecular target: T8, BC2T A5F
T8 construct: positional scanning library member
T8 peptide: Ac-PDRKFAVSHWQQ-NH2
Summary of the method: as §1

[9] = molecular target: T9, BC2T K4E
T9 construct: positional scanning library member
T9 peptide: Ac-PDREAAVSHWQQ-NH2
Summary of the method: as §1

[10] = molecular target: T10, BC2T K4D
T10 construct: positional scanning library member
T10 peptide: Ac-PDRDAAVSHWQQ-NH2
Summary of the method: as §1

[11] = molecular target: T11, BC2T R3P
T11 construct: positional scanning library member
T11 peptide: Ac-PDPKAAVSHWQQ-NH2
Summary of the method: as §1

[12] = molecular target: T12, BC2T A6Q
T12 construct: positional scanning library member
T12 peptide: Ac-PDRKAQVSHWQQ-NH2
Summary of the method: as §1

[13] = molecular target: T13, BC2T A6Y
T13 construct: positional scanning library member
T13 peptide: Ac-PDRKAYVSHWQQ-NH2
Summary of the method: as §1

[14] = molecular target: T14, BC2T V7S
T14 construct: positional scanning library member
T14 peptide: Ac-PDRKAASSHWQQ-NH2
Summary of the method: as §1

[15] = molecular target: T15, BC2T V7N
T15 construct: positional scanning library member
T15 peptide: Ac-PDRKAANSHWQQ-NH2
Summary of the method: as §1

[16] = molecular target: T16, BC2T D2E
T16 construct: positional scanning library member
T16 peptide: Ac-PERKAAVSHWQQ-NH2
Summary of the method: as §1

[17] = molecular target: T17, BC2T V7K
T17 construct: positional scanning library member
T17 peptide: Ac-PDRKAAKSHWQQ-NH2
Summary of the method: as §1

[18] = molecular target: T18, BC2T P1R
T18 construct: positional scanning library member
T18 peptide: Ac-RDRKAAVSHWQQ-NH2
Summary of the method: as §1

[19] = molecular target: T19, BC2T A5P
T19 construct: positional scanning library member
T19 peptide: Ac-PDRKPAVSHWQQ-NH2
Summary of the method: as §1

[20] = molecular target: T20, BC2T W10D
T20 construct: positional scanning library member
T20 peptide: Ac-PDRKAAVSHDQQ-NH2
Summary of the method: as §1

[21] = molecular target: T21, BC2T Q11P
T21 construct: positional scanning library member
T21 peptide: Ac-PDRKAAVSHWPQ-NH2
Summary of the method: as §1

ratio [1]: 0.2
ratio [2]: 1
ratio [3]: 0.9
ratio [4]: 0.3
ratio [5]: 0.3
ratio [6]: 1.1
ratio [7]: 0.2
ratio [8]: 0.1
ratio [9]: 0.9
ratio [10]: 1
ratio [11]: 1
ratio [12]: 1
ratio [13]: 1
ratio [14]: 0.3
ratio [15]: 0.4
ratio [16]: 0.2
ratio [17]: 0.1
ratio [18]: 0.2
ratio [19]: 0.2
B1: BC2-NbR106E (VHH)
VHH: QVQLVESGGGLVQPGGSLTLSCTASGFTLDHYDIGWFRQAPGKEREGVSCINNSDDDTYYADSVKGRFTIFMDNAKDTVYLQMNSLKPEDTAIYYCAEARGCKRGEYEYDFWGQGTQVTVSS
notes: headlock mutant of BC2-Nb; immobilised on beads in this assay

B2: BC2 nanobody (VHH)
VHH: B1 VHH with E106R
notes: immobilised on beads in this assay; also called BC2-Nb; BC2 nanotrap (immobilised)
ratio [20]: 1

ratio [21]: 0.9
B3: BC2-NbR106S (VHH)
VHH: B1 VHH with E106S
notes: as for B1
